# Reference: publication PMC2137744
# Target: H chains of human 7S γ-globulin reduced without alkylation (human)
# Assay: co-sedimentation
substance,measurement,value
L chains of human 7S γ-globulin reduced without alkylation (natural protein),yield of doubly labeled 7S material,30 per cent
